Data from patent US20200325187A1 (Genentech, published 2020).

Columns and labels:
[1] = target: T1, hVEGF-A (8-109) (human, UniProt P15692 214-315); experiment: spot phage ELISA
T1 sequence (looked up): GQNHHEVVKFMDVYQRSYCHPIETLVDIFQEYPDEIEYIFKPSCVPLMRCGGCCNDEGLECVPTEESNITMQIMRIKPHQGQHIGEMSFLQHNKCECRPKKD
Outline: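 Phage clones from four selection rounds were grown overnight at 37 °C with M13-KO7 helper phage. Bound phage was detected with anti-M13-HRP and TMB, with binding to BSA alone run in parallel as background.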

[2] = target: T2, VEGF-C (human, UniProt P49767 103-227, limits assumed); experiment: competition ELISA: VEGF-C coated, constant Flt-4 receptor, peptide titrated
T2 sequence (looked up): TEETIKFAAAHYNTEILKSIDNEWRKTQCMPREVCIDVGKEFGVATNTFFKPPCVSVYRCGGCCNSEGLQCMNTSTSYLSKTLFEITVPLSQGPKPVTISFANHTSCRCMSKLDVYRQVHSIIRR

B1: VEGF_CKP9.54.90 (designed binder)
chain: GCNIMLPFWGCGRDFECLAGCVCQYYQSCG
B1 was tested, and the ELISA [1] was 2.3, the “S/N vs BSA” value [1] was 29.5 and the binding result [2] was “no binding (tested: 5 µM)”.
